Source: patent publication US20220401560A1, “PEPTIDE ENCAPSULATING FERRITIN” (Ajinomoto Co., Inc., priority 2019, published 2022)
Positions of bridges follow the written chain, without caps; N, C: chain ends. No end group written: not given here. *: point of attachment. Pent4ynoyl = C#CCCC(=O)*

Assays:
[1] = target: T1, ferritin (FTH) (Homo sapiens, UniProt P02794); assay: Search for peptides capable of being encapsulated into ferritin by disassembly/reassembly process, LC-MS detection; parameters: key to encapsulation: “A” represents peptides with three times of confirmation of encapsulation.; “B” represents peptides with two times of confirmation of encapsulation or less.; “C” represents peptides without confirmation of encapsulation; conditions: for encapsulation: encapsulation into ferritin (FTH), three trials; for MS peak of peptide derived from peptide encapsulating ferritin: FTH, disassembly/reassembly process performed
T1 construct: made in house; host or cells: Escherichia coli BL21 (DE3), plasmid pET20-FTH
T1 sequence (P02794 whole entry): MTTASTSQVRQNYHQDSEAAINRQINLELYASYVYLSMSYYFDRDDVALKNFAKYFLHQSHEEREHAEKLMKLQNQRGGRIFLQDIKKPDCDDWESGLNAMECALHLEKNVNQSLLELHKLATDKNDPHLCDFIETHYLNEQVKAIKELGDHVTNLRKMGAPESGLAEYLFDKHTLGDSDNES
Experimental: Peptides capable of being encapsulated into ferritin by disassembly/reassembly process were searched. In the disassembly/reassembly process, 1 mL of a 50 mM glycine hydrochloride buffer (pH 2.3) containing FTH at a final concentration of 5 mg/mL and the peptide at a final concentration of 0.5 mM, was left to stand at room temperature for 15 minutes. Next, 310 μL of a 1 M Tris hydrochloride buffer (pH 9.0) was added for neutralization, and left to stand at room temperature for 3 hours. After the standing, 1.2 mL of a 50 mM Tris hydrochloride buffer (pH 8.0) was added, and centrifuged (at 15,000 rpm for one minute). Thereafter, 2.5 mL of its supernatant was injected into a desalting column PD-10 (Sephadex G-25 filled product, GE Healthcare Inc.) equilibrated with a 50 mM Tris hydrochloride buffer (pH 8) for the elusion with 3.0 mL of a 50 mM Tris hydrochloride buffer (pH 8.0) to separate non-encapsulated peptides and ferritin. A whole amount (3.0 mL) of the resulting solution was concentrated to 0.1 mL by centrifugal ultrafiltration using Vivaspin 20-100K (GE Healthcare Inc.). The operation of adding 10 mL of a 50 mM Tris hydrochloride buffer to the concentrated solution and then concentrating was repeated twice to remove peptides that were not removed by PD-10 to obtain 0.1 mL of a sample solution. For the LC-MS analysis, 50 p1 of a 1 M glycine hydrochloride buffer (pH 2.3) was added to 50 μL of the sample solution and then the resulting solution was left to stand at room temperature for 15 minutes. To the solution, 900 μL of ethanol was added. Next, the resulting solution was stirred vigorously and then centrifuged (at 15,000 rpm for five minutes) for collection of the supernatant. The supernatant was analyzed using LCMS-2020 (Shimadzu Corporation) as LC-MS, Inertsil (Registered trademark) as a column, ODS-3, particle diameter of 2 μm and 2.1 mm×50 mm (GL science). Thereafter, 10 μL of the sample injected into the column was eluded at a flow rate of 0.2 mL/min for 10 minutes such that a mixing ratio of a solution A (0.1% formic acid/99.9% acetonitrile) and a solution B (50% water/50% acetonitrile) is from 95:5 to 95:5.
The encapsulation of the peptide into ferritin was studied by comparing in terms of the amount of the peptide detected by LC/MS between the sample prepared by encapsulating the peptide into ferritin at the disassembly/reassembly process and the sample prepared simply by mixing ferritin with the peptide. For example, ClAc-FHC was eluted at a retention time of 0.8 minute. […] However, the peak was not observed for the sample prepared by simply mixing the peptide with ferritin without performing the disassembly/reassembly process (FIG. 12B). FIG. 13 to FIG. 17 illustrate LC-MS results for FTH in which the peptide was encapsulated at the disassembly/reassembly process.

[2] = target: T1, ferritin (FTH); assay: Encapsulation of fluorescent dye-modified peptide into FTH, column chromatography with absorbance at 480 nm and LC-MS; conditions: absorbance at 480 nm at elution position of 24-mer FTH; LC-MS
Experimental: Of a 50 mM glycine hydrochloride buffer (pH 2.3) that contains FTH (chemical formula weight: 509,421) at a final concentration of 5 mg/mL and the peptide at a final concentration of 0.5 mM, 0.5 mL was left to stand at room temperature for 15 minutes. Next, 50 μL of a 1 M Tris hydrochloride buffer (pH 9.0) was added for neutralization, and the resulting solution was left to stand at room temperature for 3 hours. After the standing, the resulting solution was centrifuged (at 15,000 rpm for one minute). Then, the supernatant was collected and the volume was increased up to 3 mL with a 10 mM Tris hydrochloride buffer (pH 8). The resulting solution was injected into the HiPrep 26/60 Sephacryl S-300 HR column (GE Healthcare Inc.) equilibrated with a 10 mM Tris-HCl buffer (pH 8.0) to separate and purify 24-mer FTH by size at a flow rate of 1.3 mL/minute. The purified ferritin was analyzed using a HiPrep 16/60 Sephacryl S-300 HR column (GE Healthcare Inc.) equilibrated with a 10 mM Tris-HCl buffer (pH 8.0) at a flow rate of 0.5 mL/minute and confirmed as the absorbance at 480 nm unobservable from FTH only, at the same position as that of a peak of FTH.
The solution containing the FTH was concentrated to 0.25 mL by centrifugal ultrafiltration using Vivaspin 20-100K (GE Healthcare Inc.). […] For the LC-MS analysis, 50 μL of a 1 M glycine hydrochloride buffer (pH 2.3) was added to 50 μL of the sample solution and then the resulting solution was left to stand at room temperature for 15 minutes. To the solution 900 μL of ethanol was added. Next, the resulting solution was stirred vigorously and then centrifuged (at 15,000 rpm for five minutes) to collect its supernatant. The supernatant was analyzed using LCMS-2020 (Shimadzu Corporation) as LC-MS, inertsil (Registered trademark) ODS-3 with a particle diameter of 2 μm and 2.1 mm×50 mm (GL science) as a column. Into the column, 10 μL of the sample was injected, and eluded at a flow rate of 0.2 mL/min for 10 minutes such that a mixing ratio of a solution A (0.1% formic acid/99.9% acetonitrile) and a solution B (50% water/50% acetonitrile) was from 95:5 to 95:5. The concentration of the contained protein was determined using a protein assay CBB solution (Nacalai Tesque, Inc.) in terms of bovine albumin as a standard. The concentration of the encapsulated peptide was determined based on the absorbance at 480 nm of the fluorescent dye FAM to which PKC-F is modified.
First, the construction of FTH encapsulating two kinds of fluorescent dye-modified peptides [5(6)—FAM-[…] (SEQ ID NO: 10), FAM-SV40, chemical formula weight 1,516, and 5(6)—FAM-[…] […] (SEQ ID NO: 11), FAN-Np, chemical formula weight 384] was attempted. 0.5 mL of a 50 mM glycine hydrochloride buffer (pH 2.3) that contains FTH (chemical formula weight 509,421) at a final concentration of 5 mg/mL and a peptide at a final concentration of 0.5 mM, was left to stand at room temperature for 15 minutes. Next, 50 μL of a 1 M Tris hydrochloride buffer (pH 9.0) was added for neutralization, and the resulting solution was left to stand at room temperature for 3 hours. […] The absorbance at […] was confirmed at the same elusion position as that of ferritin 24-mer, for ferritin that was used for the operation to encapsulate FAM-SV40 therein. […] Next, the peptide amount of FAM-SV40 encapsulated in purified ferritin was quantified based on the 480 nm absorbance and by CBB staining with use of ferritin-amount-albumin as a standard.

With “5(6)-FAM-CGGKRPAAIK KAGQAKKKKG (SEQ ID NO: 11) ({5(6)‑FAM}-CGGKRPAAIKKAGQAKKKKG) [FAM-Np, fluorescent dye-modified peptide, linear]” as the substance, how does the encapsulation [1] read?
Its encapsulation is “C”.

And the “encapsulation of peptide in FTH” value [2]?
Its value is “not encapsulated”.

What does the source list for EEEEEEEEEE (SEQ ID NO: 16) [Ex10]?
MS peak of peptide derived from peptide encapsulating ferritin [1]: presence; encapsulation [1]: A (“A” represents peptides with three times of confirmation of encapsulation.)

Which results are given for “FBP0032: cyclic peptide with disulfide bond, X is 4-pentynoic acid (Pent4ynoyl-GQKGCKKTPKLASLSCTGF; disulfide 5-16 (inferred))”?
MS peak of peptide derived from peptide encapsulating ferritin [1]: presence; encapsulation [1]: A (“A” represents peptides with three times of confirmation of encapsulation.)

“FBP0033: cyclic peptide with disulfide bond, X is 4-pentynoic acid (Pent4ynoyl-GRPGCGPRKPRTPKKCGSH; disulfide 5-16 (inferred))” was tested. Which “MS peak of peptide derived from peptide encapsulating ferritin” value (shortened to “MS peak of peptide derived”) [1] did it give?
The value was “presence”.

And the encapsulation [1]?
The encapsulation was “A (“A” represents peptides with three times of confirmation of encapsulation.)”.

What does the source list for “GGKRPARGGKRPAR (SEQ ID NO: 19) (Synthetic amino acid sequence of the peptide NRP-1-2 which is to be tested for encapsulation with ferritin) [linear peptide]”?
MS peak of peptide derived from peptide encapsulating ferritin [1]: presence; encapsulation [1]: A (“A” represents peptides with three times of confirmation of encapsulation.)

Which results are given for “GIRLRGGIRLRGGIRLRG (SEQ ID NO: 22) (Synthetic amino acid sequence of the peptide GRP78-3 which is to be tested for encapsulation with ferritin) [linear peptide]”?
MS peak of peptide derived from peptide encapsulating ferritin [1]: presence; encapsulation [1]: B (“B” represents peptides with two times of confirmation of encapsulation or less.)

HTSD (SEQ ID NO: 12) [EGFR] was tested. Which “MS peak of peptide derived” value [1] did it give?
The value was “presence”.

And the encapsulation [1]?
The encapsulation was “A (“A” represents peptides with three times of confirmation of encapsulation.)”.

What does the source list for “Pakti-L1: cyclic peptide, cysteine sulfur bonded to acetyl group at N-terminus ({CH2CO}-YILVRNRLLRVDCG; thioether N-13)”?
MS peak of peptide derived from peptide encapsulating ferritin [1]: presence; encapsulation [1]: B (“B” represents peptides with two times of confirmation of encapsulation or less.)

Which results are given for “QMARIPKRLARHQMAR (SEQ ID NO: 21) (Synthetic amino acid sequence of the peptide NS which is to be tested for encapsulation with ferritin) [linear peptide]”?
MS peak of peptide derived from peptide encapsulating ferritin [1]: presence; encapsulation [1]: A (“A” represents peptides with three times of confirmation of encapsulation.)

Which encapsulation [1] does the source give for RRRRRRRRRR (SEQ ID NO: 17) [Rx10] here?
The encapsulation was “C”.

Which results are given for “SPRGDLAVLGHKY (SEQ ID NO: 18) (Synthetic amino acid sequence of the peptide avb6 which is to be tested for encapsulation with ferritin) [ανβ6, linear peptide]”?
MS peak of peptide derived from peptide encapsulating ferritin [1]: presence; encapsulation [1]: B (“B” represents peptides with two times of confirmation of encapsulation or less.)

How did the “MS peak of peptide derived” value [1] turn out when “VLWLKNR (SEQ ID NO: 14) (Synthetic amino acid sequence of the peptide FGF3-FP16 which is to be tested for encapsulation with ferritin) [linear peptide]” was run?
Its value is “presence”.

And the encapsulation [1]?
The encapsulation was “B (“B” represents peptides with two times of confirmation of encapsulation or less.)”.

For “cyclo (AS (D-Pro) PTWI (Dab) (Orn) (D-Dab)(Dab)W(Dab)(Dab)) [Murepavadin, reference compound]”, which “MS peak of peptide derived” value [1] is on record?
The value was “presence”.

What about the encapsulation [1] of the same substance?
The encapsulation was “A (“A” represents peptides with three times of confirmation of encapsulation.)”.

With “cyclo(PPYVPLII) (SEQ ID NO: 15) (cyclic; Synthetic amino acid sequence of the peptide Hymenistatin I which is to be tested for encapsulation with ferritin) [cyclic peptide purchased from Sigma-Aldrich, reference compound]” as the substance, how does the “MS peak of peptide derived” value [1] read?
Its value is “presence”.

And the encapsulation [1]?
Its encapsulation is “B (“B” represents peptides with two times of confirmation of encapsulation or less.)”.

For “cyclo(RGDFV) (SEQ ID NO: 13) [cyloRGDfV, reference compound]”, which “MS peak of peptide derived” value [1] is on record?
The value was “presence”.

What about the encapsulation [1] of the same substance?
Its encapsulation is “B (“B” represents peptides with two times of confirmation of encapsulation or less.)”.
